Five molecules from article PMC11900225, “Deletions in Glial Fibrillary Acidic Protein Leading to Alterations in Intermediate Filament Assembly and Network Formation” (International Journal of Molecular Sciences, 2025) can be followed below.

Data set [1] deals with the molecule itself. The data set is described as follows: low-speed sedimentation assay of assembled filaments; assembly mixture centrifuged at 1000 x g for 5 min at room temperature; supernatant and pellet by SDS-PAGE and Coomassie; monitors filament aggregation.
Data set [2] addresses T1, Glial fibrillary acidic protein (GFAP), full-length wild type, human GFAPα (human, UniProt P14136-1 1-432).
T1 construct: Glial fibrillary acidic protein, major isoform GFAPα, human, full length, cDNA in pET23b; Expressed from pET23b; also called WT GFAP; WT
The data set is described as follows: high-speed sedimentation assay of assembled filaments; assembly mixture layered on a 0.85 M sucrose cushion in assembly buffer, 80,000 x g, 20 min, 20 °C; supernatant and pellet by SDS-PAGE and Coomassie; efficiency is the percent of total protein in the pellet. As to conditions: both partners purified.

Data set [3] deals with the molecule itself. The data set is described as above.
Data set [4] deals with T1, Glial fibrillary acidic protein (GFAP), …. Nature of the data set: in vitro filament assembly with negative-stain transmission electron microscopy; 0.2 mg/mL GFAP dialysed stepwise out of 6 M urea into low-salt buffer, then into assembly buffer (10 mM Tris-HCl, 50 mM NaCl, 1 mM DTT, pH 7) at 34–36 °C for 12–16 h; stained with 1% uranyl acetate; mutants alone or coassembled with WT at stated proportions. As to conditions: both partners purified.

B1: ΔEx5 GFAP (natural protein)
chain: not shown
notes: Human GFAPα with an in-frame deletion of 42 residues, amino acids 261-302 (skipping of exon 5, an Alexander disease splice site mutation); Expressed from pET23b; no tag named; also called ΔEx5 mutant; ΔEx5 deletion mutant
In the case of B1, the “percent in the pellet (low-speed sedimentation)” value (“percent in the pellet” for short) in data set [1] came out at 69%. In addition, the binding result in data set [2] is “binds”.

B2: ΔEx4 GFAP (natural protein)
chain: not shown
notes: Expressed from pET23b; no tag named; also called ΔEx4 mutant
On to B2, for which the binding result in data set [3] and in data set [4] was “binds” throughout.

B3: CΔ92 GFAP (domain or fragment, human, UniProt P14136 1-340, looked up)
chain: MERRRITSAARRSYVSSGEMMVGGLAPGRRLGPGTRLSLARMPPPLPTRVDFSLAGALNAGFKETRASERAEMMELNDRFASYIEKVRFLEQQNKALAAELNQLRAKEPTKLADVYQAELRELRLRLDQLTANSARLEVERDNLAQDLATVRQKLQDETNLRLEAENNLAAYRQEADEATLARLDLERKIESLEEEIRFLRKIHEEEVRELQEQLARQQVHVELDVAKPDLTAALKEIRTQYEAMASSNMHEAEEWYRSKFADLTDAAARNAELLRQAKHEANDYRRQLQSLTCDLESLRGTNESLERQMREQEERHVREAASYQEALARLEEEGQSLKD
notes: Human GFAPα with 92 residues deleted from the C-terminus (CΔX is the number of residues deleted from the C-terminus); fragment potentially generated by calpain cleavage at 337SLKD340; Expressed from pET23b; no tag named
For the molecule B3, the binding result in data set [3] is given as “binds”.

B4: CΔ207 GFAP (domain or fragment, human, UniProt P14136 1-225, looked up)
chain: MERRRITSAARRSYVSSGEMMVGGLAPGRRLGPGTRLSLARMPPPLPTRVDFSLAGALNAGFKETRASERAEMMELNDRFASYIEKVRFLEQQNKALAAELNQLRAKEPTKLADVYQAELRELRLRLDQLTANSARLEVERDNLAQDLATVRQKLQDETNLRLEAENNLAAYRQEADEATLARLDLERKIESLEEEIRFLRKIHEEEVRELQEQLARQQVHVELD
notes: Human GFAPα, the first 225 amino acids; N-terminal fragment produced by caspase-6 cleavage at 222VELD225; Expressed from pET23b; no tag named
Regarding B4, the “percent in the pellet” value in data set [1] was 91%.

B5: CΔ121 GFAP (domain or fragment, human, UniProt P14136 1-311, looked up)
chain: MERRRITSAARRSYVSSGEMMVGGLAPGRRLGPGTRLSLARMPPPLPTRVDFSLAGALNAGFKETRASERAEMMELNDRFASYIEKVRFLEQQNKALAAELNQLRAKEPTKLADVYQAELRELRLRLDQLTANSARLEVERDNLAQDLATVRQKLQDETNLRLEAENNLAAYRQEADEATLARLDLERKIESLEEEIRFLRKIHEEEVRELQEQLARQQVHVELDVAKPDLTAALKEIRTQYEAMASSNMHEAEEWYRSKFADLTDAAARNAELLRQAKHEANDYRRQLQSLTCDLESLRGTNESLERQMR
notes: Human GFAPα, the initial 311 residues; truncation caused by a nonsense Alexander disease mutation; Expressed from pET23b; no tag named
For the molecule B5, in data set [1], the “percent in the pellet” value amounted to 68%.
